Measurements published in patent US6808893 (Johns Hopkins, dated 2004).

What was measured:
[1] = target: T1, myc-tagged full-length GTRAP4-41 (rat, UniProt Q9QWN8 2-2388); assay: co-immunoprecipitation from transfected HEK 293T cells
T1 construct: tested from solubilized cell extract; also called myc-tagged GTRAP4-41; not shown: myc tag of the myc-tagged pRK5 vector

[2] = target: T2, GST (glutathione S-transferase) alone (UniProt P08515 1-218 = GST); assay: cell-free binding to protein immobilized on glutathione-Sepharose
T2 construct: Control, immobilized on glutathione-Sepharose
Experimental: The interaction of GTRAP3-18 with EAAC1 was examined using in vitro and in vivo methods. For in vitro cell-free binding, EAAC1 was expressed as a fusion protein with glutathione S-transferase (GST), and GTRAP3-18 was produced and labeled with [^35S]-methionine by in vitro transcription and translation. Purified GST or GST-EAAC 1 fusion proteins immobilized on glutathione-Sepharose were incubated with [^35S]-labeled GTRAP3-18 protein. GTRAP3-18 specifically binds to immobilized GST-EAAC1 but not to GST alone, indicating an in vitro interaction.

T1 sequence (Q9QWN8 other isoform, or with tags, fused parts or gaps): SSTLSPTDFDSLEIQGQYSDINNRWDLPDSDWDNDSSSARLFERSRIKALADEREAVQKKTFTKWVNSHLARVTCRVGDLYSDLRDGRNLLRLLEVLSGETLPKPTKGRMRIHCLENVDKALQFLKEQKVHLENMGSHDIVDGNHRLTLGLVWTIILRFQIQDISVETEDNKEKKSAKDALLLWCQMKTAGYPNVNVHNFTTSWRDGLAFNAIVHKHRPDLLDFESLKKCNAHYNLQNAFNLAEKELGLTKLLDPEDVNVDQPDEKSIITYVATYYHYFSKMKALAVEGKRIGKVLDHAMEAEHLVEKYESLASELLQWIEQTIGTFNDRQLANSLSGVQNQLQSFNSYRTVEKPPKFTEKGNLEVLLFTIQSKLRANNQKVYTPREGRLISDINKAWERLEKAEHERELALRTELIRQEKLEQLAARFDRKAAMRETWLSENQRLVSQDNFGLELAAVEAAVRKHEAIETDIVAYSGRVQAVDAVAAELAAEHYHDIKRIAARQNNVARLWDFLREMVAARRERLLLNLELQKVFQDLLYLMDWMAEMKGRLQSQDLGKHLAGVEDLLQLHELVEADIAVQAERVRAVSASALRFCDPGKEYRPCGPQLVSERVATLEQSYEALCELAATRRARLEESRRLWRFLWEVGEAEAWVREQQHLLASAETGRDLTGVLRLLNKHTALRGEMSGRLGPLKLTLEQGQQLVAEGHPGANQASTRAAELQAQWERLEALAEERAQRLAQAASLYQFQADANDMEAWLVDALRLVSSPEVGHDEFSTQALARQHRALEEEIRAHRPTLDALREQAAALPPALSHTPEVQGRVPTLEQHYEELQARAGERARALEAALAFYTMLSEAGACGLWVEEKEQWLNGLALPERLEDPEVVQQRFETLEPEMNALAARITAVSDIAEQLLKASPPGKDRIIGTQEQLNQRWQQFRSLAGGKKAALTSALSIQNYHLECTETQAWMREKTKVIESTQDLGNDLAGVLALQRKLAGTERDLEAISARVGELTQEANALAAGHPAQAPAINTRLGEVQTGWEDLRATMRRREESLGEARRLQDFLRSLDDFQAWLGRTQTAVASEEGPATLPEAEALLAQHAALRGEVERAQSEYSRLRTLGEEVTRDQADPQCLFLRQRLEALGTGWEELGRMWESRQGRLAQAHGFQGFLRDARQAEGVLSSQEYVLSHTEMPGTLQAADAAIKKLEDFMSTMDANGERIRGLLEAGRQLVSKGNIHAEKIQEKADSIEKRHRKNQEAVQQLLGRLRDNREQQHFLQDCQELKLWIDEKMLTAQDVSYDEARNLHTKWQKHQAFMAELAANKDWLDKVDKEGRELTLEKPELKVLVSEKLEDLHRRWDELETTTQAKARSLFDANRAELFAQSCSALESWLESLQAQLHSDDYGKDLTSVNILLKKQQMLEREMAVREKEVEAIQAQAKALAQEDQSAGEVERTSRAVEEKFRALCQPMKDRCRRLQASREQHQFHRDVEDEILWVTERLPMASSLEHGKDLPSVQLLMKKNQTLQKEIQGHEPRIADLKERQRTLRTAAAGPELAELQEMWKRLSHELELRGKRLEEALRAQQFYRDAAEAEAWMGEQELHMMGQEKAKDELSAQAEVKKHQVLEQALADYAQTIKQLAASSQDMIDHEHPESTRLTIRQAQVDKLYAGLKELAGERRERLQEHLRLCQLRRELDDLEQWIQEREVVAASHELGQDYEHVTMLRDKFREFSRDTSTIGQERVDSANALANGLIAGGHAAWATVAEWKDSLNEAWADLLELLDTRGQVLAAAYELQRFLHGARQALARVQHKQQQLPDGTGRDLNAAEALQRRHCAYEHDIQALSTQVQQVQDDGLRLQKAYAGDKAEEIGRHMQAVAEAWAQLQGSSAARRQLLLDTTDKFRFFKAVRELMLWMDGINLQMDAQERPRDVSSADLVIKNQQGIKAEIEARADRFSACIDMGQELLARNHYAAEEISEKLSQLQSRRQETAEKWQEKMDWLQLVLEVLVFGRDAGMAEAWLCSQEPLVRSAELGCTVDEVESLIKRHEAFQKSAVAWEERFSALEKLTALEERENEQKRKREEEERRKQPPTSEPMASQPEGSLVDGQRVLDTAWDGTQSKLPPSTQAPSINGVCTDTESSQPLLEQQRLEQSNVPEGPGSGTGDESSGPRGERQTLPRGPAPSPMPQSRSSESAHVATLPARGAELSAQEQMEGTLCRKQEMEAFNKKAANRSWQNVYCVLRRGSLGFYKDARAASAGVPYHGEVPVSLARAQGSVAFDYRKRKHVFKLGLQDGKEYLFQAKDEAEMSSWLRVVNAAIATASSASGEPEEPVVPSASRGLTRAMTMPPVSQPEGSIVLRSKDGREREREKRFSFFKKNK
T2 sequence (P08515 whole entry): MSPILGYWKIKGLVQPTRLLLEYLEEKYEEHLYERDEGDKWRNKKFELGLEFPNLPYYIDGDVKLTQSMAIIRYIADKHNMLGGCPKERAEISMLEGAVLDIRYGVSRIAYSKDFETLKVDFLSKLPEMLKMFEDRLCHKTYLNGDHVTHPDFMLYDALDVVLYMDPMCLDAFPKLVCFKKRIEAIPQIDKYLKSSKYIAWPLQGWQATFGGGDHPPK

B1: myc-tagged full-length GTRAP4-48 (other)
chain: MSIRLPHSIDRSASKKQSHLSSPIASWLSSLSSLGDSTPERTSPSHHRQPSDTSETTAGLVQRCVIIQKDQHGFGFTVSGDRIVLVQSVRPGGAAMKAGVKEGDRIIKVNGTMVTNSSHLEVVKLIKSGAYAALTLLGSSPPSVGVSGLQQNPSVAGVLRVNPIIPPPPPPPPLPPPQHITGPKPLQDPEVQKHATQILWNMLRQEEEELQDILPPCGETSQRTCEGRLSVDSQEADSGLDSGTERFPSISESLMNRNSVLSDPGLDSPQTSPVILARVAQHHRRQGSDAALLPLNHQGIDQSPKPLIIGPEEDYDPGYFNNESDIIFQDLEKLKSHPAYLVVFLRYILSQADPGPLLFYLCSEVYQQTNPKDSRSLGKDIWNIFLEKNAPLRVKIPEMLQAEIDLRLRNNEDPRNVLCEAQEAVMLEIQEQINDYRSKRTLGLGSLYGENDLLGLDGDPLRERQMAEKQLAALGDILSKYEEDRSAPMDFAVNTFMSHAGIRLRESRSSCTAEKTQSAPDKDKWLPFFPKTKKQSSNSKKEKDALEDKKRNPILRYIGKPKSSSQSIKPGNVRNIIQHFENSHQYDVPEPGTQRLSTGSFPEDLLESDSSRSEIRLGRSGSLKGREEMKRSRKAENVPRPRSDVDMDAAAEAARLHQSASSSASSLSTRSLENPTPPFTPKMGRRSIESPNLGFCTDVILPHLLEDDLGQLSDLEPEPEVQNWQHTVGKDVVANLTQREIDRQEVINELFVTEASHLRTLRVLDLIFYQRMRKENLMPREELARLFPNLPELIEIHNSWCEAMKKLREEGPIIRDISDPMLARFDGPAREELQQVAAQFCSYQSVALELIRTKQRKESRFQLFMQEAESHPQCRRLQLRDLIVSEMQRLTKYPLLLENIIKHTEGGTSEHEKLCRARDQCREILKFVNEAVKQTENRHRLEGYQKRLDATALERASNPLAAEFKSLDLTTRKMIHEGPLTWRISKDKTLDLQVLLLEDLVVLLQRQEERLLLKCHSKTAVGSSDSKQTFSPVLKLNAVLIRSVATDKRAFFIICTSELGPPQIYELVALTSSDKNIWMELLEEAVQNATKHPGAAPIPIHPSPPGSQEPAYQGSTSSRVEINDSEVYHTEKEPKKLPEGPGPEQRVQDKQLIAQGEPVQEEDEEELRTLPRAPPSLDGENRGIRTRDPVLLALTGPLLMEGLADAALEDVENLRHLILWSLLPGHTVKTQAAGEPEDDLTPTPSVVSITSHPWDPGSPGQAPTISDSTRLARPEGSQPEGEDVAVSSLAHLPPRTRSSGVWDSPELDRNPAAEAASTEPAASYKVVRKVSLLPGGGVGAAKVAGSNAIPDSGQSESELSEVEGGAQATGNCFYVSMPAGPLDSSTEPTGTPPSPSQCHSLPAWPTEPQPYRGVRGGQCSSLVRRDVDVIFHTIEQLTIKLHRLKDMELAHRELLKSLGGESSGGTTPVGSFHTEAARWTDYSLSPPAKEALASDSQNGQEQGSCPEEGSDIALEDSATDTAVSPGP
notes: tested from solubilized cell extract; also called myc-tagged GTRAP4-48; not shown: myc tag of the myc-tagged pRK5 vector
[1]
  binding result: no binding

B2: [35S]-methionine labelled GTRAP3-18 made by in vitro transcription and translation (other)
chain: MDVNLAPLRAWDDFFPGSDRFARPDFRDISKWNNRVVSNLLYYQTNYLVVAAMMISVVGFLSPFNMILGGIIVVLVFTGFVWAAHNKDILRRMKKQYPTAFVMVVMLASYFLISMFGGVMVFVFGITFPLLLMFIHASLRLRNLKNKLENKMEGIGLKKTPMGIILDALEQQEDSINKFADYISKARE
modifications: labeled with [35S]-methionine
notes: also called [35S]-labeled GTRAP3-18 protein
[2]
  binding result: no binding
